Reference: patent US20180057595A1 (CELLDEX THERAPEUTICS, published 2018)

Legend:
[1] = molecular target: T1, human MET, cell-surface expressed (human, UniProt P08581 25-1390); experiment: FACS competition on A549 cells; competitor Ab237C
T1 construct: whole, on cells; Used for all assays on cells that carry wild-type human MET; the cell line is named under assay or readout; also called c-Met; hMET
Procedure: The binding of anti-MET antibodies to cell surface MET was analyzed by competition FACS analysis using A549 NSCLC cells (ATCC cat. no. CCL-185). […] A total of 3×10⁵ A549 NSCLC cells were added per dilution of antibody and incubated on ice for 1 hour. Cells were washed and a 1:100 dilution of PE-labeled goat anti-rat IgG antibody (BioLegend cat. no. 405406) in FACS buffer was added before incubation on ice for 1 hour. […] The geometric mean fluorescence intensity was plotted against antibody concentration. The IC₅₀ of each of the test antibodies was calculated relative to the IC₅₀ of the reference antibody.

[2] = molecular target: T2, human MET-ECD with a His tag (MET-ECD-His) (human, UniProt P08581 25-932); experiment: competition ELISA on immobilised MET-ECD; competitor Ab237C
T2 construct: The ELISA sections speak of MET-ECD, MET-ECD-His or His-tagged MET extracellular domain; also called hu-MET-ECD; human cMET ECD
T2 sequence (P08581 other isoform, or with tags, fused parts or gaps): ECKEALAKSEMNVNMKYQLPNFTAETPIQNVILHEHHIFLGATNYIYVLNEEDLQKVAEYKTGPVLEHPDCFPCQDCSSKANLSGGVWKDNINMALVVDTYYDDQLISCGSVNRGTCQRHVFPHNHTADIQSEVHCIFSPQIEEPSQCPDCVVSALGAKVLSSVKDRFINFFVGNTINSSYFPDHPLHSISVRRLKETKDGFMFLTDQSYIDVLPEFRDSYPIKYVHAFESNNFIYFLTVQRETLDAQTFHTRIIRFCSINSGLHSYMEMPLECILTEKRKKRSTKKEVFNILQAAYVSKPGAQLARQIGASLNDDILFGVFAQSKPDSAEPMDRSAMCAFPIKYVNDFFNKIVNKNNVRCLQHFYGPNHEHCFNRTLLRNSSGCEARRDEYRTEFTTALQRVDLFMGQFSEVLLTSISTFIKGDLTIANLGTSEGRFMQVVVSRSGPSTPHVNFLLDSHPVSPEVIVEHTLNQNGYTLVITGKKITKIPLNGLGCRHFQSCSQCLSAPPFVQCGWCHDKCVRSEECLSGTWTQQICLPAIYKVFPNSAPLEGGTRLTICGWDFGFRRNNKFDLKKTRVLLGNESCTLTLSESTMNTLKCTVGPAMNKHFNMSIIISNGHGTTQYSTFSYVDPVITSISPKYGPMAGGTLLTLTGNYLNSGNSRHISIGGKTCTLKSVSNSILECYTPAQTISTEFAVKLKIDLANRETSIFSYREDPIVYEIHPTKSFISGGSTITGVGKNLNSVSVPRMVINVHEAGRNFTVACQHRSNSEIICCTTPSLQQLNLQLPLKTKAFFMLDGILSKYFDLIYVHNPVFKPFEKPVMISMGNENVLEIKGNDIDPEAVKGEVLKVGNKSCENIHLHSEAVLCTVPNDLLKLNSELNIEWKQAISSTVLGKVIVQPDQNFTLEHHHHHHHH
Procedure: The binding of anti-MET antibodies to recombinant MET extracellular domain (“MET-ECD”) was analyzed by competition ELISA. […] The reaction was stopped with 3M HCl, absorbance read at 450 nm on a Dynex Technologies MRX TC II plate reader and the binding curves plotted. Binding curves were used to calculate IC₅₀ values for each test antibody normalized to the IC₅₀ of the reference antibody.

T1 sequence (P08581 25-1390): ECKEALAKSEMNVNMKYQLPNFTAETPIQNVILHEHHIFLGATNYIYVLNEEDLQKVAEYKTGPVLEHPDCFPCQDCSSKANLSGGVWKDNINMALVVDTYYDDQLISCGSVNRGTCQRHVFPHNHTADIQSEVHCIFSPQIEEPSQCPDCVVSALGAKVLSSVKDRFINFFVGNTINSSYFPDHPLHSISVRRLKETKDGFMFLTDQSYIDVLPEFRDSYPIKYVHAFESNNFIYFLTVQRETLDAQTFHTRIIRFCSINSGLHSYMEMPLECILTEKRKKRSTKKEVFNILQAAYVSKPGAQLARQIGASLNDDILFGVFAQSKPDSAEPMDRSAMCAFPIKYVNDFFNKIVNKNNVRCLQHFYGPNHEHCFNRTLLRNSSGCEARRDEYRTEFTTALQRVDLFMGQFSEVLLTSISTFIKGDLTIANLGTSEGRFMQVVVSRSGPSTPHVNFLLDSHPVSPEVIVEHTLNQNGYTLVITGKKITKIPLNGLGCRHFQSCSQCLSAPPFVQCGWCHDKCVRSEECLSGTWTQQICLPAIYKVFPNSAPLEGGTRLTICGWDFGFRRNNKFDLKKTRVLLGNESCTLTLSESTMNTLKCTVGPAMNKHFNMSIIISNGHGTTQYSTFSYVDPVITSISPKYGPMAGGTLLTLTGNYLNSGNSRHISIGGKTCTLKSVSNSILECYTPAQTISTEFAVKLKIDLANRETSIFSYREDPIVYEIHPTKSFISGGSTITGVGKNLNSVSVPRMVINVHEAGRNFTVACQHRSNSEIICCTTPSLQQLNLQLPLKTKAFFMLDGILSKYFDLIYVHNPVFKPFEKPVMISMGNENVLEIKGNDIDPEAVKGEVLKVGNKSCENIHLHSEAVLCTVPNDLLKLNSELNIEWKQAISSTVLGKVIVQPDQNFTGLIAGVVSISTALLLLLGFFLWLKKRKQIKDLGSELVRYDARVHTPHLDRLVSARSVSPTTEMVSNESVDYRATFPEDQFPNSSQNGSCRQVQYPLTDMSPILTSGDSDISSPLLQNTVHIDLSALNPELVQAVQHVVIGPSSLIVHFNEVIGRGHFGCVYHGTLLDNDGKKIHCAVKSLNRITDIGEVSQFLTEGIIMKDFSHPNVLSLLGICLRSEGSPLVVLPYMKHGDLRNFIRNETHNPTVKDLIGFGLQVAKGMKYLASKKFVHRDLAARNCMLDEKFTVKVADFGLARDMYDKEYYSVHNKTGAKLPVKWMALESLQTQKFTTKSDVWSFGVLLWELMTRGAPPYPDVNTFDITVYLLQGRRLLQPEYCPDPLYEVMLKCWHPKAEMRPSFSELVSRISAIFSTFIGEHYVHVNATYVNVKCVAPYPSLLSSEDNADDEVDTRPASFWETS

relative IC50 (against Ab237C) [1]: ~1.22 relative to IC50 of Ab237C
IC50 relative to the IC50 of Ab237C [2]: ~0.97 relative to IC50 of Ab237C
B1: Ab241 (antibody, human IgG1, V domains shown)
VH: EVQLVESGGGLVQPGGSLKLSCAASGFTFSDSYMAWVRQAPGKGLEWVASISSDGGGTYYRDSVKGRFTISRDNAKSSLYLQMDSLRTEDTATYYCTTEGIYTTDYYPYCFNYWGQGVMVTVSS
VL: DIQMTQSPSSLSASVGDRVTITCLASADIHSNLAWYQQKPGKAPQLLIYYGNNLNDGVPSRFSGSGSGTDYTLKINSLQSEDVAIYFCQQSYDSPPTFGQGTKLEIKR
notes: Composite human (humanized) antibody, human IgG1, kappa
